Test results from US11034759B2, “Humanized M-CSF specific monoclonal antibodies, kits, and uses thereof” (NOVARTIS VACCINES AND DIAGNOSTICS, INC., priority 2004, dated 2021).
One block for each molecule: values may come before it.

Tests used:
MCSF [1] = biological target: T1, MCSF (Homo sapiens, UniProt P09603); experiment: Biacore analysis, antibody captured on anti-mouse Fc chip, MCSF flowed over; type: binding; conditions: Table 8, 25° C., 1:1 interaction model
T1 sequence (P09603 33-255 limits assumed): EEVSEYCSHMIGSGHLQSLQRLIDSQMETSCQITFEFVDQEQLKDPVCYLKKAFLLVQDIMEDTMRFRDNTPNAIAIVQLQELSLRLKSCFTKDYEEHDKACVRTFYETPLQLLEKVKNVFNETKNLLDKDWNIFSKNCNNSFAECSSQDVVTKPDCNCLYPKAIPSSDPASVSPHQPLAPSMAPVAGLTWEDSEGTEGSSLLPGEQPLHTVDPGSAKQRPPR
Protocol: Binding properties of the aforementioned antibodies were analyzed using Biacore analyses. […] The aforementioned antibodies were then captured on the anti-mouse Fc/CM5 biosensor chip at 1.5 μg/ml for 3 min at 2 μl/min. MCSF was flowed over the modified biosensor surface at varying concentrations (Rmax ˜15). Test antibodies and antigen were diluted in 0.01 M HEPES pH 7.4, 0.15 M NaCL, 3 mM EDTA, 0.005% Surfactant P20 (HBS-EP). All experiments were performed at 25° C. Kinetic and affinity constants were determined using Biaevaluation software (Biacore) with a 1:1 interaction model/global fit.

MCSF [2] = biological target: T1, MCSF; experiment: Biacore analysis, M-CSF immobilized, intact Mab or Fab flowed over (Example 11); type: binding; conditions: Table 9, 25° C., 1:1 interaction model
Protocol: Specifically, M-CSF was immobilized onto CMS biosensor chip via amine coupling. 0.05 μg/ml M-CSF in 10 mM Na Acetate pH 4.0 was injected at 1 μl/min for 5 minutes to achieve RL=6-12 RU. Test antibody (or Fab fragment) were flowed over the modified biosensor surface at varying concentrations. Test antibodies were diluted in 0.01 M HEPES pH 7.4, 0.15 M NaCL, 3 mM EDTA, 0.005% Surfactant P20 (HBS-EP) and all experiments were done at 25° C. Kinetic and affinity constants were determined using Biaevaluation software (Biacore) with a 1:1 interaction model/global fit.

MCSF [3] = biological target: T1, MCSF; experiment: Recognition of M-CSF under reducing and non-reducing conditions; type: binding; conditions: 0.1 μg M-CSF
Protocol: Accordingly, the anti-M-CSF antibodies were tested against 0.1 μg M-CSF under reducing as well as non-reducing conditions.

MCSF [4] = biological target: T1, MCSF; experiment: M-NFS-60 proliferation assay, neutralizing activity (Example 14); type: cell-based; conditions: Table 12; relative IC50, M-NFS-60 proliferation, 10 ng/ml M-CSF, 72 hours
Text: To test the neutralizing activity of M-CSF antibodies, a proliferation assay of M-NFS-60 cell line was used (American Type Culture Collection, Accession No. CRL-1838, available from ATCC in Rockville, Md., USA, derived from a myologenous leukemia induced with the Cas-Br.MuLV wild mouse ecotropic retrovirus. The cell line responds to both interleukin 3 and M-CSF and contains a truncated c-myb proto-oncogene caused by the integration of a retrovirus). Proliferation of M-NFS-60 requires active M-CSF in a dose-dependent fashion. In the assay, M-NFS-60 cells were washed and plated in RPIM1640 medium with 10% FBS and 1% Pen/Strep. […] Cells were incubated at 37° C. under 5% CO2 for 72 hours before cell numbers were quantified by CellTiter Glo assay (Promega). […] The IC50 of each antibody was analyzed by curve fit.
The assay was repeated using human MCSF in serum, MDA231 conditioned medium (which contains M-CSF), cynomologous monkey MCSF in serum, and cynomologous monkey recombinant MCSF. The results are presented in FIGS. 25 (recombinant MCSF), 26 (human MCSF in serum) and 27 (MDA231 conditioned medium) as the fluorescent reading from CellTiter Glo assay, which is linear with cell number. […]

- Ka (MCSF [1]): 594000 M⁻¹ s⁻¹
- Kd (MCSF [1]): 0.00177 s⁻¹
- Ka (MCSF [2]): 127000 M⁻¹ s⁻¹
- Kd (MCSF [2]): 0.00126 s⁻¹
B1: 5H4: MCSF-specific murine antibody 5H4 (SEQ ID NOs: 10 and 11) (antibody, listed as Mus musculus)
heavy: EIQLQQSGPELVKTGTSVKISCKASGYSFTGYFMHWVKQSHGKSLEWIGYISCYNGDTNYNQNFKGKATFTVDTSSSTAYMQFNSLTSEDSAVYYCAREGGNYPAYWGQGTLVTVSAAKTTPPSVYPLAPGSAAQTNSMVTLGCLVKGYFPEPVTVTWNSGSLSSGVHTFPAVLQSDLYTLSSSVTVPSSTWPSETVTCNVAHPASSTKVDKKIVPRDCGCKPCICTVPEVSSVFIFPPKPKDVLTITLTPKVTCVVVDISKDDPEVQFSWFVDDVEVHTAQTQPREEQFNSTFRSVSELPIMHQDWLNGKEFKCRVNSAAFPAPIEKTISKTKGRPKAPQVYTIPPPKEQMAKDKVSLTCMITDFFPEDITVEWQWNGQPAENYKNTQPIMDTDGSYFVYSKLNVQKSNWEAGNTFTCSVLHEGLHNHHTEKSLSHSPGK
light: DIVMTQSHKFMSTSVGDRVTITCKASQNVGTAVTWYQQKPGQSPKLLIYWTSTRHAGVPDRFTGSGSGTDFTLTISDVQSEDLADYFCQQYSSYPLTFGAGTKLELKRADAAPTVSIFPPSSEQLTSGGASVVCFLNNFYPKDINVKWKIDGSERQNGVLNSWTDQDSKDSTYSMSSTLTLTKDEYERHNSYTCEATHKTSTSPIVKSFNRNEC
- Form of M-CSF recognized (MCSF [3]): Only the non-reduced form of M-CSF was recognized

- IC50 Fold Loss (MCSF [4]): No loss
B2: heRX1-10.G4: Human Engineered RX1 construct 10 with IgG4 constant region; named only in Table 12 (antibody)
heavy: QVQLQESGPGLVKPSQTLSLTCTVSDYSITSDYAWNWIRQFPGKGLEWMGYISYSGSTSYNPSLKSRITISRDTSKNQFSLQLNSVTAADTAVYYCASFDYAHAMDYWGQGTTVTVSS
light: DIVLTQSPAFLSVTPGEKVTFTCQASQSIGTSIHWYQQKTDQAPKLLIKYASESISGIPSRFSGSGSGTDFTLTISSVEAEDAADYYCQQINSWPTTFGGGTKLEIKRT
modifications: left off: a dimerising Fc or GST
